{
  "source": "patent US10005838B2",
  "about": "“Milk fat globule epidermal growth factor 8 regulates fatty acid uptake” (REGENTS OF THE UNIVERSITY OF CALIFORNIA, priority 2013, dated 2018)",
  "molecules": {"B1": {"name": "rMfge8: recombinant Milk Fat Globule Epidermal Growth Factor 8, an integrin ligand, expressed in High 5 cells (protein)", "chain": "ASGDFCDSSLCLNGGTCLTGQDNDIYCLCPEGFTGLVCNETERGPCSPNPCYNDAKCLVTLDTQRGDIFTEYICQCPVGYSGIHCETETNYYNLDGEYMFTTAVPNTAVPTPAPTPDLSNNLASRCSTQLGMEGGAIADSQISASSVYMGFMGLQRWGPELARLYRTGIVNAWTASNYDSKPWIQVNLLRKMRVSGVMTQGASRAGRAEYLKTFKVAYSLDGRKFEFIQDESGGDKEFLGNLDNNSLKVNMFNPTLEAQYIKLYPVSCHRGCTLRFELLGCELHGCSEPLGLKNNTIPDSQMSASSSYKTWNLRAFGWYPHLGRLDNQGKINAWTAQSNSAKEWLQVDLGTQRQVTGIITQGARDFGHIQYVASYKVAHSDDGVQWTVYEEQGSSKVFQGNLDNNSHKKNIFEKPFMARYVRVLPVSWHNRITLRLELLGC"}},
  "key": {"primary mouse adipocytes": {"test_system": "primary mouse adipocytes", "assay": "Fluorescent fatty acid uptake assay in primary mouse adipocytes", "assay_type": "cell-based", "method": "Uptake of fatty acids by differentiated 3T3-L1 adipocytes or primary mouse adipocytes was assessed using a QBT Fatty Acid Uptake Kit (Molecular Devices). Cells were plated in triplicate in 96-well plates at a concentration of 25,000 cells per well in 100 μl of DMEM/10% FCS. Plates were centrifuged at 1000 rpm for 4 minutes and incubated at 37° Celsius for 4-5 hours. Cells were then serum deprived for 1 hour before treatment with recombinant proteins for 30 minutes followed by the addition of QBT Fatty Acid Uptake solution. In experiments using function-blocking antibodies, antibodies against mouse integrins αv (clone RMV-7) (Takahashi, K. et al., J Immunol 145, 4371-4379 (1990)) β3 (clone 2C9.G2; BD Biosciences) (Ashkar, S. et al., Science 287, 860-864 (2000)), β5 (clone ALULA) (Su, G. et al., American journal of respiratory cell and molecular biology 36, 377-386 (2007)), 131 (clone HA2/5; BD Biosciences, anti-rat with cross-reactivity with mouse (Zovein, A. C. et al., Developmental cell 18, 39-51 (2010)), CD36 (clone MF3; Abcam) (Helming, L. et al., Journal of cell science 122, 453-459 (2009)), human integrins αv (clone L230) (Thomas, G. J. et al., British journal of cancer 87, 859-867 (2002)), β3 (clone Axum-2) (Su, G. et al., Am J Respir Crit Care Med 185, 58-66 (2012)), β5 (clone ALULA), β1 (clone P5D2), cycloRGD and cycloRAD (BACHEM) were added to cells after serum deprivation and cells were incubated for 20 minutes at 4° Celsius prior to addition of recombinant proteins. Plates were incubated in a fluorescent plate reader at 37° Celsius and kinetic readings were acquired every 20 seconds for 30 minutes. Fluorescence values were plotted against time and data was expressed as relative fluorescent units per minutes×10^3.\nPrimary mouse adipocytes were obtained from epididymal fat pads by collagenase digestion in Krebs-HEPES (KRBH) buffer followed by filtering through a 100 μm strainer which was then washed with an additional 7.5 mL KRBH buffer. Adipocytes were allowed to float to the top of the mixture for 5 minutes, and the solution under the adipocyte layer was removed with a syringe. The adipocytes were washed with 10 mL KRBH and again allowed to float to the surface, at which point the solution was again removed. This process was repeated for a total of 3 washes. After the last aspiration, adipocytes were resuspended in 0.5-1.0 mL and counted.\nPrimary mouse adipocyte progenitors from the vascular stromal fraction were isolated and cultured as reported previously (Tseng et al., 2008). In brief, subcutaneous white adipose tissue was removed, minced and digested with 1 mg/ml collagenase for 45 min at 37° C. in DMEM/F12 medium containing 1% BSA and antibiotics. Digested tissues were filtered through sterile 150 μm nylon mesh and centrifuged at 250 g for 5 min. […]"}, "[1]": {"assay": "Liver and small intestine triglyceride content after olive oil gavage", "assay_type": "in vivo, mouse", "details": "Mfge8−/− mice; 8 hours after olive oil gavage", "method": "6-8 week-old mice were fasted for 4 hours and then gavaged with 15 μL olive oil per gram body weight. Mice had access to water but not food for the remainder of the experiment. In the experiments in FIGS. 3C and 3F, 50 μg/kg body weight of recombinant protein was mixed into olive oil and administered immediately to mice by gavage. In blocking antibody experiments, integrins αv (clone RMV-7) and 05 (clone ALULA) were administered by gavaging mice with 100 μL water containing 0.5 μg antibody per gram body weight 30 minutes before olive oil gavage. Triglyceride content of serum was assayed using a commercially available kit (Sigma-Aldrich) and fatty acid concentrations were quantified by Wako (Rabot, S. et al., FASEB J 24, 4948-4959 (2010)).\nAfter experiments described above, samples from the left lobe of the liver and the proximal small intestine were isolated and rapidly frozen in liquid nitrogen for triglyceride content assays. Control mice were starved for 8 hours before their organs were harvested as above. Triglyceride content of the intestine (Uchida, A. et al., Front Physiol 3, 26) and liver (Kim, K. Y. et al., J Clin Invest 121, 3701-3712 (2011)) and fecal samples Kim, K. Y. et al., J Clin Invest 121, 3701-3712 (2011)) were quantified as described previously."}, "AKT": {"test_system": "AKT", "assay": "Western blot of antral tissue, AKT phosphorylation", "parameters": "species or system mouse", "details": "antral tissue treated for 30 minutes", "method": "(§1) In FIG. 14A, the antral rings were treated for 15 min with PI3K inhibitor wortmannin (Wort.100 nm) followed by assessment of contractile force in response to MCh. N=3-4. ***P<0.0001. […] Western blot of antral tissue were treated for 30 minutes with or without rMfge8. […] Western blot of antrum were treated for 30 minutes with wortmannin (100 ng/ml) or Mfge8 and then with MCh for 15 minutes prior to quantifying active RhoA using a GST pull-down. […] PTEN activity assay measured the conversion of PIP3 to PIP2 in freshly isolated antrum with and without the rMfge8 or RGE construct (10 μg/ml) n=3-5. *P<0.05, **P<0.01, ***P<0.001."}, "PTEN": {"test_system": "PTEN", "assay": "PTEN activity assay (conversion of PIP3 to PIP2) in freshly isolated antrum", "assay_type": "biochemical, mouse", "details": "10 μg/ml", "method": "as §1"}},
  "data": [
    {"molecule": "B1", "values": [
      {"measurement": "fatty acid uptake in CD36−/− adipocytes", "setting": "primary mouse adipocytes; CD36−/− adipocytes", "value": "did not significantly increase"},
      {"measurement": "fatty acid uptake in FATP1−/− adipocytes", "setting": "primary mouse adipocytes; FATP1−/− adipocytes", "value": "did not significantly increase"},
      {"measurement": "fatty acid uptake in Mfge8−/− adipocytes", "setting": "primary mouse adipocytes; Mfge8−/− primary adipocytes and differentiated adipocyte progenitors", "value": "rescued"},
      {"measurement": "WT fatty acid uptake", "setting": "primary mouse adipocytes; WT adipocytes", "value": "significantly increased"},
      {"measurement": "liver triglyceride levels after gavage", "setting": "[1]", "value": "increased significantly"},
      {"measurement": "AKT phosphorylation in antral tissue", "setting": "AKT", "value": "reduces"},
      {"measurement": "PTEN activity", "setting": "PTEN", "value": "modulates"}
    ]}
  ]
}
